Experimental data as given in patent US12139520B2 (priority 2020, dated 2024).
Numbered stars: 1 amine (or outer) side, 2 acyl side, 3 side chain; on linkers, the order of the positions; unused ones are H or OH. Bridge positions count the residues as written; N and C are the ends. Square brackets hold non-standard residues; d marks the D form. Ends that are not written are not given here. * marks the point of attachment. C20 diacid = O=C(O)CCCCCCCCCCCCCCCCCCC(=O)*; γGlu = O=C(O)[C@H](CCC(=O)[*:2])N[*:1]; Hyp = O=C(O)[C@@H]1C[C@@H](O)CN1

T1: hAMY3R (human, UniProt P30988)
T1 sequence 1: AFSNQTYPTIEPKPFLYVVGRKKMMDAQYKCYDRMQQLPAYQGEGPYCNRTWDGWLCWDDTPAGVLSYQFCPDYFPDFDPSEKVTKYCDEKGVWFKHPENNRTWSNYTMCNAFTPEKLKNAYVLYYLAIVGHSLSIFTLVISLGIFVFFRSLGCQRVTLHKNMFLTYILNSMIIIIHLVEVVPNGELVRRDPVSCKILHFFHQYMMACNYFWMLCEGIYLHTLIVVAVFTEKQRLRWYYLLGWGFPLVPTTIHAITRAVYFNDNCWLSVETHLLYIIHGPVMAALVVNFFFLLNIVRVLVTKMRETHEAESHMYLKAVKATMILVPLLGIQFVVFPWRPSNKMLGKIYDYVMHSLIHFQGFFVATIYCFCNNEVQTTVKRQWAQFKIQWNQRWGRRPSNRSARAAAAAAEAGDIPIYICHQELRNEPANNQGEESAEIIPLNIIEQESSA
T1 sequence 2: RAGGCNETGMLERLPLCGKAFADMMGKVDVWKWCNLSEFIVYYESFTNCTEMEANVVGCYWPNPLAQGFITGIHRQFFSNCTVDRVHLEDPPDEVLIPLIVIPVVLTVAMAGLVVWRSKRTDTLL


Tests used:
[1] = molecular target: hAM1R (human, UniProt Q16602); test: cell-based or functional assay
[2] = molecular target: T1, hAMY3R; test: cell-based or functional assay

hAM1R EC50 (cAMP) [1] | hAMY3R EC50 (cAMP) [2] | Binder
0.893 nM | 0.027 nM | {C20 diacid-γGlu}-KCNFATCTVQRLAHQIYQFTDKDKDNVAPRTKVGSNGY-NH2 (disulfide 2-7 (inferred); ends not checked) [SEQ ID NO: 378]
> 5000 nM | 0.145 nM | GCRTGTCTVQWLAHQIYQFTDKDKDNVAPRSNIGPQG[Hyp]-NH2 (disulfide 2-7 (inferred); ends not checked) [SEQ ID NO: 359]
5.93 nM | 0.034 nM | GCRFGTCTVQRLAHQIYQFTDKDKDNVAPRSNISPNGY [SEQ ID NO: 383]
1.09 nM | 0.036 nM | GCRFGTCTVQRLAHQIYQFTDKDKDNVAPRSKVSPNGY [SEQ ID NO: 384]
7 nM | 0.036 nM | GCRFGTCTVQRLAHQIYQFTDKDKDNVAPRTKVSPNGY [SEQ ID NO: 385]
> 5000 nM | 0.071 nM | GCRTGTCTVQWLAHQIYQFTDKDKDNVAPRTNVSPNG[Hyp]-NH2 (disulfide 2-7 (inferred); ends not checked) [SEQ ID NO: 358]
1.21 nM | 0.012 nM | GCRFGTCTVQRLAHFLYQFTDKDKDNVAPRTKIGPQGY [SEQ ID NO: 365]
0.243 nM | 0.024 nM | GCRFATCTVQRLAHFLYQFTDKDKDNVAPRTKVGPQGY [SEQ ID NO: 377]
> 5000 nM | 0.079 nM | GCRTGTCTVQWLAHQIYQFTDKDKDNVAPRTNIGPQGY [SEQ ID NO: 356]
0.665 nM | 0.068 nM | GCRFGTCTVQRLAHQIYQFTDKDKDNVAPRTKIGPQGY [SEQ ID NO: 391]
12.1 nM | 0.013 nM | GCRFGTCTVQRLAHQIYQFTDKDKDNVAPRTNISPNGY [SEQ ID NO: 366]
5.12 nM | 0.034 nM | GCRFGTCTVQRLAHQIYQFTDKDKDNVAPRSNIGPQGY [SEQ ID NO: 382]
0.992 nM | 0.04 nM | GCRFGTCTVQRLAHQIYQFTDKDKDNVAPRSKIGPQGY [SEQ ID NO: 387]
3.94 nM | 0.02 nM | {C20 diacid-γGlu}-GCRFGTCTVQRLANQIYQFTDKDKDNVAPRTNVGPQGY-NH2 (disulfide 2-7 (inferred); ends not checked) [SEQ ID NO: 372]

More lines, now with the values behind:

Binder | hAM1R EC50 (cAMP) [1] | hAMY3R EC50 (cAMP) [2]
{C20 diacid-γGlu}-GCRFATCTVQRLAHQIYQFTDKDKDNVAPRTKVGPQGY-NH2 (disulfide 2-7 (inferred); ends not checked) [SEQ ID NO: 380] | 0.162 nM | 0.031 nM
GCRFGTCTVQRLAHQIYQFTDKDKDNVAPRSNVGPNGY [SEQ ID NO: 373] | 7.71 nM | 0.02 nM
{C20 diacid-γGlu}-KCNTATCTVARLAHQIYQFTDKDKDNVAPPTNVGSNG[Hyp]-NH2 (disulfide 2-7 (inferred); ends not checked) [SEQ ID NO: 37] | > 5000 nM | 0.01 nM
{C20 diacid-γGlu}-KCNFATCATQRLANFLVQFTDKDKDNVAPRSKIGPQGY-NH2 (disulfide 2-7 (inferred); ends not checked) [SEQ ID NO: 389] | 1.04 nM | 0.045 nM
{C20 diacid-γGlu}-KCNFATCTVQRLAHQIYQFTDKDKDNVAPRTEVGSNGY-NH2 (disulfide 2-7 (inferred); ends not checked) [SEQ ID NO: 370] | 10.3 nM | 0.017 nM
{C20 diacid-γGlu}-GCRFGTCTVQRLANFLYQFTDKDKDNVAPRTNVGPQGY-NH2 (disulfide 2-7 (inferred); ends not checked) [SEQ ID NO: 386] | 7.35 nM | 0.039 nM
{C20 diacid-γGlu}-GCRFGTCTVQRLAHFLYQFTDKDKDNVAPRTKIGPQGY-NH2 (disulfide 2-7 (inferred); ends not checked) [SEQ ID NO: 390] | 0.889 nM | 0.048 nM
GCRFGTCTVQRLAHFLYQFTDKDKDNVAPRTKIGSNGY [SEQ ID NO: 376] | 12 nM | 0.022 nM
GCRFGTCTVQRLAHQIYQFTDKDKDNVAPRTKISPNGY [SEQ ID NO: 371] | 3.03 nM | 0.019 nM
GCRFGTCTVQRLAHFLYQFTDKDKDNVAPRTKVGPQGY [SEQ ID NO: 369] | 2.48 nM | 0.017 nM
GCRFGTCTVQRLAHQIYQFTDKDKDNVAPRSKVGPQGY [SEQ ID NO: 375] | 0.403 nM | 0.022 nM
GCRFGTCTVQRLAHQIYQFTDKDKDNVAPRTNVGPQGY [SEQ ID NO: 362] | 18.1 nM | 0.007 nM
GCRFGTCTVQRLAHQIYQFTDKDKDNVAPRTNIGPQGY [SEQ ID NO: 379] | 0.458 nM | 0.029 nM
GCRFGTCTVQRLAHFLYQFTDKDKDNVAPRTNIGPQGY [SEQ ID NO: 364] | 13.6 nM | 0.01 nM
GCRFGTCTVQRLAHQIYQFTDKDKDNVAPRTNIGPNGY [SEQ ID NO: 381] | 7.61 nM | 0.032 nM
GCRFGTCTVQRLAHQIYQFTDKDKDNVAPRSNVGPQGY [SEQ ID NO: 374] | 12 nM | 0.021 nM
GCRFGTCTVQRLAHQIYQFTDKDKDNVAPRTKIGPNGY [SEQ ID NO: 367] | 0.563 nM | 0.014 nM
GCRFGTCTVQRLAHQIYQFTDKDKDNVAPRTKVGPQGY [SEQ ID NO: 368] | 0.997 nM | 0.015 nM
{C20 diacid-γGlu}-GCRFGTCTVQRLAHFLYQFTDKDKDNVAPRTNIGPQGY-NH2 (disulfide 2-7 (inferred); ends not checked) [SEQ ID NO: 388] | 4.01 nM | 0.043 nM
{C20 diacid-γGlu}-KCNTATCTVNRLAHQIYQFTDKDKDNVAPPTNVGSNG[Hyp]-NH2 (disulfide 2-7 (inferred); ends not checked) [SEQ ID NO: 38] | > 5000 nM | 0.01 nM
{C20 diacid-γGlu}-RCNTATCTVQRLAHQIYQFTDKDKDNVAPPTNVGSNG[Hyp]-NH2 (disulfide 2-7 (inferred); ends not checked) [SEQ ID NO: 39] | > 5000 nM | 0.01 nM
GCRTGTCTVQWLAHQIYQFTDKDKDNVAPRSNVSPNG[Hyp]-NH2 (disulfide 2-7 (inferred); ends not checked) [SEQ ID NO: 360] | > 5000 nM | 0.165 nM
KCNFATCATQRLANFLVQFTDKDKDNVAPRSKIGPQGY [SEQ ID NO: 363] | 1.77 nM | 0.01 nM
GCRTGTCTVQWLAHQIYQFTDKDKDNVAPRTKIGPQG[Hyp]-NH2 (disulfide 2-7 (inferred); ends not checked) [SEQ ID NO: 357] | > 5000 nM | 0.115 nM
KCNFATCTVQRLAHQIYQFTDKDKDNVAPRTKVGSNGY [SEQ ID NO: 361] | 0.913 nM | 0.006 nM
